Experimental data reported in the supplement of paper PMC12764529.
± gives the half width of the 95% confidence interval.

Columns and labels:
[1] = folding stability dG unfold from trypsin proteolysis; higher = more stable
Method in brief: (§1)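 Designed mini-proteins (under 80 residues, no cysteine) in a PA-tagged cDNA display construct were digested with trypsin and chymotrypsin. Each protease was used at 11 concentrations (threefold dilutions) plus a no-protease condition, followed by sequencing. K50 was inferred by Bayesian fitting of sequencing counts, and unfolding free energy was derived against a sequence-predicted unfolded-state K50 and a shared folded-state K50, per protease or combined. Only designs with AlphaFold2 dimer inter-PAE above 15 were kept.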

[2] = folding stability dG unfold from chymotrypsin proteolysis; higher = more stable
Method in brief: as §1

[3] = folding stability dG unfold (combined trypsin and chymotrypsin); higher = more stable
Method in brief: as §1

Sequence | folding stability dG unfold [1] [kcal/mol] | folding stability dG unfold [2] [kcal/mol] | folding stability dG unfold [3] [kcal/mol]
SAGGPVKLVKVQFINPETGEPVEISGPASKVLEIAEKLGLNVTSVTVIENPNTILVVVPGPNQLVVVTDSAG [r5_521_TrMRF] | 1.82 ± 0.055 | 1.45 ± 0.018 | 1.69 ± 0.11
SAGGPVNKKELVTVPVYYDPETGKFVVKATYPTRPITVPTDETDPVEALARFGTLLEKVTGKPIDTFVGSAG [r5_251_TrMRF] | -0.0487 ± 0.083 | 0.414 ± 0.098 | 0.288 ± 0.04
SAGGPVTFEAPLEELLKALPPELVRHASVEPLGEGERRFIATVELEDRRIEAYSDPERPGRVLVTLHFSAGG [r13_942_TrMRF] | 0.332 ± 0.11 | 0.688 ± 0.12 | 0.569 ± 0.12
SAGGPVTTVSVSGFVLPDGSRALLVTVATYYPDGYVAVPPVLVLVYPNGESEASTSTLVVKVPGGALSAGGS [r16_505_TrMRF] | 2.3 ± 0.056 | 3.008 ± 0.011 | 2.79 ± 0.04
SAGGQKTETFEFAFRKPDGSLYLVKITLIEKLPNEPNVYIAKVEVYKLNLVTGKPEKVGEFEVLLNLSAGGS [r8_65_TrMRF] | 3.4 ± 0.13 | 5.04 ± 0.15 | 4.96 ± 0.14
SAGGQRIEFEVQPNPENGMIFIKVKFQQMEPDPNGNKETREITHTVMVKLPPGAKPGEKIEIDIPPNMSAGG [r13_450_TrROS] | 0.859 ± 0.046 | 0.828 ± 0.25 | 1.1 ± 0.39
SAGGQRIEIKIKPGYFIMIKIRNPKNGETFRHFIPFKKPQEIEIPIPPNYEIEDIYIMPPKDMPDGMISAGG [r13_119_TrROS] | 2.11 ± 0.058 | 2.28 ± 0.09 | 2.15 ± 0.18
SAGGRIEIDPNSMQIKIYDAEDGEKVEIPINMPPGQIKEIELDPDGKISIRMPMWGQTQELPADDIKSAGGS [r16_410_TrROS] | -0.206 ± 0.061 | 1.22 ± 0.023 | 0.793 ± 0.16
SAGGRIVINLNPENGYLMISIRMPHRRYDPEDGKGKPEPMSMSIMFPPEEIEKFAEEFGMPIEIVPWSAGGS [r8_337_TrROS] | 1.42 ± 0.071 | 1.4 ± 0.16 | 1.56 ± 0.18
SAGGSAAEETYESDGLTVTVRTERGPDGTVRVVVEVRDRDGPLLATLPFTFKAREDEGLSFSVPFPSAGGSA [r15_950_TrMRF] | 1.28 ± 0.036 | 1.26 ± 0.099 | 1.34 ± 0.076
SAGGSAAGYAVLVRVEEVRLTSFRRRADGSLLEVDPDVELKLEVLAVFRIYPSPGDGWVVDPSDPASAGGSA [r15_162_TrMRF] | 2.73 ± 0.057 | 3.827 ± 0.025 | 3.53 ± 0.062
SAGGSAALPIVEVLETEESSDGTVTILAKLEDGTVVTITVTVEVKPPPPPPPVDPANMSPERLAAVSAGGSA [r15_41_JUSTAS] | 0.998 ± 0.08 | 0.181 ± 0.07 | 0.566 ± 0.19
SAGGSAAPEDTLVEEEVEIVTEETDPKLGGKKIVTTKVKRLIRYFPEKGELEVETVETETTVYPNESAGGSA [r15_517_JUSTAS] | -0.644 ± 0.47 | 0.416 ± 0.084 | 0.111 ± 0.1
SAGGSAAPLVLPVRIYGPNENVTAEASEYDPGTGIVRLTVTHPDGTKTTLTFTGPAALLPPDADLNSAGGSA [r15_596_TrMRF] | 0.611 ± 0.023 | 0.849 ± 0.066 | 0.764 ± 0.056
SAGGSAAPPVTVEVLPDGRIVITRGDAVASSVTPVPPDATITATFPATGETVTITRRAPEVTVTPASAGGSA [r15_235_JUSTAS] | -0.616 ± 0.29 | 1.19 ± 0.017 | 0.835 ± 0.097
SAGGSAAPVPVGAELAAAAPGAAVTVELPDGVTATVTRVGDTLVVDVTRFSEPPLPVSSATATLPLSAGGSA [r15_558_JUSTAS] | -0.369 ± 0.066 | 0.638 ± 0.028 | 0.409 ± 0.05
SAGGSAATVEVTRLPGGRYVVRLRNPDTDEEIVVELPVDASTTPEDVLEAARALVAELEEEGYTIESAGGSA [r15_1022_TrMRF] | 2.92 ± 0.07 | 3.135 ± 0.024 | 3.04 ± 0.058
SAGGSAAVGTSKGANVVTVRVEELEDKVVVYRYDPATGTVRVIVIDKPTGKALETKTFPVLPDQDASAGGSA [r15_425_TrMRF] | 1.01 ± 0.018 | 1.95 ± 0.047 | 1.65 ± 0.049
